The stoichiometry N is the number of molecules, sites or subunits per partner or assembly.

Changes are numbered by the printed parent chain.

B1: HisSUMO-Rec15 coiled-coil domain (residues 1–160) (S. pombe) (domain or fragment)
chain: MSYSVSAAQLWSRKLAMQAEDMQQHQKSQSNQIASCLAEMNTKQEVVNQTIGQLGRSISEVQQQNSQLVLQSLNQINMSMQQVALGIQDYASRINKLEQTMSDMNLKFEALQKEQNSNTKTLADCTSQMTIITKKLDAELKKRYMTTKQTRTVQNQTMPR
B2: HisSUMO-PRD3 coiled-coil domain (residues 120–270) (A. thaliana) (domain or fragment)
chain: IGESKSQISEELEQRFGMMETSLSRFGMMLDSIQSDIMQANRGTKEVFLETERIQQKLTLQDTSLQQLRKEQADSKASLDGGVKFILEEFSKDPNQEKLQKILQMLTTIPEQVETALQKIQREICHTFTREIQVLASLRTPEPRVRVPTAP
B3: HisSUMO-IHO1 coiled-coil domain (residues 109–267) (M. musculus) (domain or fragment)
chain: GKSKGLSKQFEEKKRRATDQSDSETLHSFVSHFPEVINKLQTSVEKTEENLSSRSQSILDSVETIAKTFQETARVQHDLMVESVRDKGSMEQAILEIQRTCAARQAEFMEMKSTLKNLEVLVVEQTKNLQQFCDNLSQLIVPGILEELKKFTSVPQVAG
B4: Mer2 C-terminal half of the coiled coil (residues 138–224) (domain or fragment)
chain: KTKSDSSYRQVLVEEISRYNSKITRHVTNKQHETEKSMRCTQEMLFNVGSQLEDVHKVLLSLSKDMHSLQTRQTALEMAFREKADHA
B5: Mer2 N-terminal half of the coiled coil (residues 41–136) (domain or fragment)
chain: KVANAGALEESDKQILEWAGKLELESMELRENSDKLIKVLNENSKTLCKSLNKFNQLLEQDAATNGNVKTLIKDLASQIENQLDKVSTAMLSKGDE
B6: HisSUMO-tagged Mer2 coiled-coil domain (residues 41–224) (domain or fragment)
chain: KVANAGALEESDKQILEWAGKLELESMELRENSDKLIKVLNENSKTLCKSLNKFNQLLEQDAATNGNVKTLIKDLASQIENQLDKVSTAMLSKGDEKKTKSDSSYRQVLVEEISRYNSKITRHVTNKQHETEKSMRCTQEMLFNVGSQLEDVHKVLLSLSKDMHSLQTRQTALEMAFREKADHA
B7: Rec114 C-terminal (dimerization) domain, residues 375–428 (domain or fragment)
chain: EASPSEGLTIRVKNVNRNASRKISKRLIKEKLKDEEFMKWVNKVETVLNKMFEK
B8: Y (cb095/cb098/cb101) (structured_DNA)
DNA 1: CTAGTATAGAGCCGGCGCGCCATGTCTAGATAGCGTTAGGTCTGCCGAATAGTACTACTCGGATCCCGAGCGAACCACGC
DNA 2: CACGGGTAACCGCGGGTACCGTGAAGATCTACTCGCGTCTCCTAACGCTATCTAGACATGGCGCGCCGGCTCTATACTAG
DNA 3: GCGTGGTTCGCTCGGGATCCGAGTAGTACTATTCGGCAGAAGACGCGAGTAGATCTTCACGGTACCCGCGGTTACCCGTG
B9: HJ40 fluorescent (dd077/cb096/cb097/cb098) (structured_DNA)
DNA 1: B8 DNA 1
DNA 2: GCGTGGTTCGCTCGGGATCCGAGTAGTACTATTCGGCAGAGGATTCGAATAGGCCTAATCGAATTCCGCCATCGATGCAC
DNA 3: GTGCATCGATGGCGGAATTCGATTAGGCCTATTCGAATCCAGACGCGAGTAGATCTTCACGGTACCCGCGGTTACCCGTG
DNA 4: B8 DNA 2
B10: Mer2 (residues 161–224) (domain or fragment)
chain: TRHVTNKQHETEKSMRCTQEMLFNVGSQLEDVHKVLLSLSKDMHSLQTRQTALEMAFREKADHA

Data set [1] deals with HisSUMO-PAIR1 coiled-coil domain (residues 140–310) (Z. mays) (Z. mays). The data set is described as follows: SEC-MALS. Background: In gel filtration, larger molecules generally elute earlier.
Data set [2] addresses HisSUMO-ASY2 coiled-coil domain (residues 55–275) (Sordaria macrospora) (Sordaria macrospora). The data set is described as follows: SEC-MALS.
The data set “SEC-MALS” deals with the molecule itself. Kind of data set: SEC-MALS.
In data set [3] the target is B7. The data set is described as follows: NMR.
The data set “NMR” deals with the molecule itself. Kind of data set: NMR.
A further data set concerns the target T1, Mer2 (Saccharomyces cerevisiae, UniProt P21651 1-314).
T1 sequence: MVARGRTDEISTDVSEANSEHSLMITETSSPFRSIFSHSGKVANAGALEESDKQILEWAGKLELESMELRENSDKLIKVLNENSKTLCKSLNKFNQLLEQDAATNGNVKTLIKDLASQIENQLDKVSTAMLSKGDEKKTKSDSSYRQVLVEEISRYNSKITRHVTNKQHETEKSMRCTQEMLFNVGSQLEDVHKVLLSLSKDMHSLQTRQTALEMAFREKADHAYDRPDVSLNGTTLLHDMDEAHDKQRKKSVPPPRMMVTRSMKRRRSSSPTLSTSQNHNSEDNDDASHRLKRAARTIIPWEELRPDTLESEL
Kind of data set: EMSA.

The target in the next data set is T2, Mer2-KKTK mutant (Saccharomyces cerevisiae, UniProt P21651 1-314, K137A;K138A;K140A).
T2 sequence: T1 sequence with K137A, K138A, K140A
Kind of data set: EMSA. (Mobility shift assays separate free from complexed probe on a gel.)

The target of data set [4] is T3, Rec114-6KR C-terminal domain;Mei4 N-terminal domain (Saccharomyces cerevisiae;Saccharomyces …, UniProt P32841;P29467 375-428;1-43, R395A;K396A;K399A;R400A;K403A;K407A|).
T3 sequence 1: B7 chain with R21A, K22A, K25A, R26A, K29A, K33A
T3 sequence 2: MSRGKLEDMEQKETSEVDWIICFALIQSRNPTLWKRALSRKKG
Kind of data set: EMSA.

Another data set concerns the target T4, Rec15 coiled-coil domain (Schizosaccharomyces pombe, UniProt Q09094 1-160).
T4 sequence: B1 chain
Kind of data set: EMSA.

The next data set addresses T5, IHO1 coiled-coil domain (Mus musculus, UniProt Q6PDM4 109-267).
T5 sequence: B3 chain
The data set is described as follows: EMSA.

The target of data set [5] is T6, Rec15-5KR coiled-coil domain (Schizosaccharomyces pombe, UniProt Q09094 1-160, K134A;K135A;K141A;K142A;R143A).
T6 sequence: B1 chain with K134A, K135A, K141A, K142A, R143A
Kind of data set: EMSA.

The target of data set [6] is T7, IHO1-KKRR coiled-coil domain (Mus musculus, UniProt Q6PDM4 109-267, K121A;K122A;R123A;R124A).
T7 sequence: B3 chain with K13A, K14A, R15A, R16A
Kind of data set: EMSA.

The molecule “HisSUMO-PAIR1 coiled-coil domain (residues 140–310) (Z. mays) (domain or fragment)” gave a stoichiometry N in [1] of 4.
Turning to “HisSUMO-ASY2 coiled-coil domain (residues 55–275) (Sordaria macrospora) (domain or fragment)”, the stoichiometry N in data set [2] amounted to 4.
In the case of B1, the “stoichiometry N” value in “SEC-MALS” is 4.
B2: in “SEC-MALS”, the “stoichiometry N” value was 4.
Still for that read-out and setting: the figure for B3 is 4.
Still for that read-out and setting: for B4 the value was 4.
On to MSRGKLEDMEQKETSEVDWIICFALIQSRNPTLWKRALSRKKG (domain or fragment) [Mei4 N-terminal domain, residues 1–43], for which, in [3], the binding result was “binds”.
For the molecule B5, the “stoichiometry N” value in the data set “SEC-MALS” is 2.
Still for that read-out and setting: the figure for B6 is 4.
B7: the binding result in “NMR” is on record as “binds”.
As to B8, in the data set with Mer2, the “apparent K (half saturation)” value amounted to 10.6 ± 1.2 nM.
For the molecule B9, the binding result in the data set with Mer2-KKTK mutant is recorded as “binds”; in data set [4], “no binding”; with Rec15 coiled-coil domain, “binds”; with IHO1 coiled-coil domain, “binds”; in data set [5], “no binding”; in data set [6] it was “no binding”.
Consider B10, for which the “stoichiometry N” value in the data set “SEC-MALS” amounted to 3.
